Experimental data: paper PMC10761851, “Asymmetric α-benzylation of cyclic ketones enabled by concurrent chemical aldol condensation and biocatalytic reduction” (Nature Communications, 2024)

Columns and labels:
purified protein [1] = substrate: O=C1CCCC/C1=C\c1ccccc1; test: purified protein; format: biochemical, Bacillus subtilis; conditions: 1.0 mM NADPH, 10 μM enzyme, PBS 100 mM, pH 7.5, 30 °C
purified protein [2] = substrate: O=C1CCC/C1=C\c1ccccc1; test: purified protein; format: biochemical, Bacillus subtilis; conditions: 1.0 mM NADPH, 10 μM enzyme, PBS 100 mM, pH 7.5, 30 °C

Protein | Km (purified protein [1]) [mM] | kcat (purified protein [1]) [s⁻¹] | kcat/Km (purified protein [1]) [M⁻¹ s⁻¹] | Km (purified protein [2]) [mM] | kcat (purified protein [2]) [s⁻¹] | kcat/Km (purified protein [2]) [M⁻¹ s⁻¹]
YqjM (Bacillus subtilis subsp. subtilis str. 168) (protein, ene-reductase, FMN enzyme) ARKLFTPITIKDMTLKNRIVMSPMCMYSSHEKDGKLTPFHMAHYISRAIGQVGLIIVEASAVNPQGRITDQDLGIWSDEHIEGFAKLTEQVKEQGSKIGIQLAHAGRKAELEGDIFAPSAIAFDEQSATPVEMSAEKVKETVQEFKQAAARAKEAGFDVIEIHAAHGYLIHEFLSPLSNHRTDEYGGSPENRYRFLREIIDEVKQVWDGPLFVRVSASDYTDKGLDIADHIGFAKWMKEQGVDLIDCSSGALVHADINVFPGYQVSFAEKIREQADMATGAVGMITDGSMAEEILQNGRADLIFIGRELLRDPFFARTAAKQLNTEIPAPVQYERGW | 7.98 ± 0.18 | 0.19 ± 0.009 | 20 | 8.35 ± 0.2 | 0.23 ± 0.005 | 30
YqjM (Bacillus subtilis subsp. subtilis str. 168; I69G) (protein, ene-reductase, FMN enzyme) ARKLFTPITIKDMTLKNRIVMSPMCMYSSHEKDGKLTPFHMAHYISRAIGQVGLIIVEASAVNPQGRGTDQDLGIWSDEHIEGFAKLTEQVKEQGSKIGIQLAHAGRKAELEGDIFAPSAIAFDEQSATPVEMSAEKVKETVQEFKQAAARAKEAGFDVIEIHAAHGYLIHEFLSPLSNHRTDEYGGSPENRYRFLREIIDEVKQVWDGPLFVRVSASDYTDKGLDIADHIGFAKWMKEQGVDLIDCSSGALVHADINVFPGYQVSFAEKIREQADMATGAVGMITDGSMAEEILQNGRADLIFIGRELLRDPFFARTAAKQLNTEIPAPVQYERGW | 3.48 ± 0.11 | 0.43 ± 0.01 | 120 | 3.56 ± 0.08 | 0.39 ± 0.012 | 110
YqjM (Bacillus subtilis subsp. subtilis str. 168; C26G/I69Y) (protein, ene-reductase, FMN enzyme) ARKLFTPITIKDMTLKNRIVMSPMGMYSSHEKDGKLTPFHMAHYISRAIGQVGLIIVEASAVNPQGRYTDQDLGIWSDEHIEGFAKLTEQVKEQGSKIGIQLAHAGRKAELEGDIFAPSAIAFDEQSATPVEMSAEKVKETVQEFKQAAARAKEAGFDVIEIHAAHGYLIHEFLSPLSNHRTDEYGGSPENRYRFLREIIDEVKQVWDGPLFVRVSASDYTDKGLDIADHIGFAKWMKEQGVDLIDCSSGALVHADINVFPGYQVSFAEKIREQADMATGAVGMITDGSMAEEILQNGRADLIFIGRELLRDPFFARTAAKQLNTEIPAPVQYERGW | 1.1 ± 0.03 | 1.86 ± 0.05 | 1690 | 1.21 ± 0.01 | 1.59 ± 0.03 | 1310
YqjM (Bacillus subtilis subsp. subtilis str. 168; I69Y) (protein, ene-reductase, FMN enzyme) ARKLFTPITIKDMTLKNRIVMSPMCMYSSHEKDGKLTPFHMAHYISRAIGQVGLIIVEASAVNPQGRYTDQDLGIWSDEHIEGFAKLTEQVKEQGSKIGIQLAHAGRKAELEGDIFAPSAIAFDEQSATPVEMSAEKVKETVQEFKQAAARAKEAGFDVIEIHAAHGYLIHEFLSPLSNHRTDEYGGSPENRYRFLREIIDEVKQVWDGPLFVRVSASDYTDKGLDIADHIGFAKWMKEQGVDLIDCSSGALVHADINVFPGYQVSFAEKIREQADMATGAVGMITDGSMAEEILQNGRADLIFIGRELLRDPFFARTAAKQLNTEIPAPVQYERGW | 4.56 ± 0.12 | 0.87 ± 0.012 | 190 | 4.25 ± 0.09 | 0.65 ± 0.015 | 150
YqjM (Bacillus subtilis subsp. subtilis str. 168; C26G/I69Y/Y28F) (protein, ene-reductase, FMN enzyme) ARKLFTPITIKDMTLKNRIVMSPMGMFSSHEKDGKLTPFHMAHYISRAIGQVGLIIVEASAVNPQGRYTDQDLGIWSDEHIEGFAKLTEQVKEQGSKIGIQLAHAGRKAELEGDIFAPSAIAFDEQSATPVEMSAEKVKETVQEFKQAAARAKEAGFDVIEIHAAHGYLIHEFLSPLSNHRTDEYGGSPENRYRFLREIIDEVKQVWDGPLFVRVSASDYTDKGLDIADHIGFAKWMKEQGVDLIDCSSGALVHADINVFPGYQVSFAEKIREQADMATGAVGMITDGSMAEEILQNGRADLIFIGRELLRDPFFARTAAKQLNTEIPAPVQYERGW |  |  |  | 2.21 ± 0.02 | 0.49 ± 0.012 | 220
YqjM (Bacillus subtilis subsp. subtilis str. 168; C26A/I69Y) (protein, ene-reductase, FMN enzyme) ARKLFTPITIKDMTLKNRIVMSPMAMYSSHEKDGKLTPFHMAHYISRAIGQVGLIIVEASAVNPQGRYTDQDLGIWSDEHIEGFAKLTEQVKEQGSKIGIQLAHAGRKAELEGDIFAPSAIAFDEQSATPVEMSAEKVKETVQEFKQAAARAKEAGFDVIEIHAAHGYLIHEFLSPLSNHRTDEYGGSPENRYRFLREIIDEVKQVWDGPLFVRVSASDYTDKGLDIADHIGFAKWMKEQGVDLIDCSSGALVHADINVFPGYQVSFAEKIREQADMATGAVGMITDGSMAEEILQNGRADLIFIGRELLRDPFFARTAAKQLNTEIPAPVQYERGW | 2.98 ± 0.1 | 1.12 ± 0.02 | 380 | 2.65 ± 0.02 | 0.89 ± 0.023 | 340
YqjM (Bacillus subtilis subsp. subtilis str. 168; C26G/I69Y/Y169F) (protein, ene-reductase, FMN enzyme) ARKLFTPITIKDMTLKNRIVMSPMGMYSSHEKDGKLTPFHMAHYISRAIGQVGLIIVEASAVNPQGRYTDQDLGIWSDEHIEGFAKLTEQVKEQGSKIGIQLAHAGRKAELEGDIFAPSAIAFDEQSATPVEMSAEKVKETVQEFKQAAARAKEAGFDVIEIHAAHGFLIHEFLSPLSNHRTDEYGGSPENRYRFLREIIDEVKQVWDGPLFVRVSASDYTDKGLDIADHIGFAKWMKEQGVDLIDCSSGALVHADINVFPGYQVSFAEKIREQADMATGAVGMITDGSMAEEILQNGRADLIFIGRELLRDPFFARTAAKQLNTEIPAPVQYERGW |  |  |  | 1.69 ± 0.01 | 0.56 ± 0.009 | 330
